Target: actin (untreated, of the in vitro assays of Fig. 1) (UniProt P68135)

Mical, sequence (Q86BA1 whole entry): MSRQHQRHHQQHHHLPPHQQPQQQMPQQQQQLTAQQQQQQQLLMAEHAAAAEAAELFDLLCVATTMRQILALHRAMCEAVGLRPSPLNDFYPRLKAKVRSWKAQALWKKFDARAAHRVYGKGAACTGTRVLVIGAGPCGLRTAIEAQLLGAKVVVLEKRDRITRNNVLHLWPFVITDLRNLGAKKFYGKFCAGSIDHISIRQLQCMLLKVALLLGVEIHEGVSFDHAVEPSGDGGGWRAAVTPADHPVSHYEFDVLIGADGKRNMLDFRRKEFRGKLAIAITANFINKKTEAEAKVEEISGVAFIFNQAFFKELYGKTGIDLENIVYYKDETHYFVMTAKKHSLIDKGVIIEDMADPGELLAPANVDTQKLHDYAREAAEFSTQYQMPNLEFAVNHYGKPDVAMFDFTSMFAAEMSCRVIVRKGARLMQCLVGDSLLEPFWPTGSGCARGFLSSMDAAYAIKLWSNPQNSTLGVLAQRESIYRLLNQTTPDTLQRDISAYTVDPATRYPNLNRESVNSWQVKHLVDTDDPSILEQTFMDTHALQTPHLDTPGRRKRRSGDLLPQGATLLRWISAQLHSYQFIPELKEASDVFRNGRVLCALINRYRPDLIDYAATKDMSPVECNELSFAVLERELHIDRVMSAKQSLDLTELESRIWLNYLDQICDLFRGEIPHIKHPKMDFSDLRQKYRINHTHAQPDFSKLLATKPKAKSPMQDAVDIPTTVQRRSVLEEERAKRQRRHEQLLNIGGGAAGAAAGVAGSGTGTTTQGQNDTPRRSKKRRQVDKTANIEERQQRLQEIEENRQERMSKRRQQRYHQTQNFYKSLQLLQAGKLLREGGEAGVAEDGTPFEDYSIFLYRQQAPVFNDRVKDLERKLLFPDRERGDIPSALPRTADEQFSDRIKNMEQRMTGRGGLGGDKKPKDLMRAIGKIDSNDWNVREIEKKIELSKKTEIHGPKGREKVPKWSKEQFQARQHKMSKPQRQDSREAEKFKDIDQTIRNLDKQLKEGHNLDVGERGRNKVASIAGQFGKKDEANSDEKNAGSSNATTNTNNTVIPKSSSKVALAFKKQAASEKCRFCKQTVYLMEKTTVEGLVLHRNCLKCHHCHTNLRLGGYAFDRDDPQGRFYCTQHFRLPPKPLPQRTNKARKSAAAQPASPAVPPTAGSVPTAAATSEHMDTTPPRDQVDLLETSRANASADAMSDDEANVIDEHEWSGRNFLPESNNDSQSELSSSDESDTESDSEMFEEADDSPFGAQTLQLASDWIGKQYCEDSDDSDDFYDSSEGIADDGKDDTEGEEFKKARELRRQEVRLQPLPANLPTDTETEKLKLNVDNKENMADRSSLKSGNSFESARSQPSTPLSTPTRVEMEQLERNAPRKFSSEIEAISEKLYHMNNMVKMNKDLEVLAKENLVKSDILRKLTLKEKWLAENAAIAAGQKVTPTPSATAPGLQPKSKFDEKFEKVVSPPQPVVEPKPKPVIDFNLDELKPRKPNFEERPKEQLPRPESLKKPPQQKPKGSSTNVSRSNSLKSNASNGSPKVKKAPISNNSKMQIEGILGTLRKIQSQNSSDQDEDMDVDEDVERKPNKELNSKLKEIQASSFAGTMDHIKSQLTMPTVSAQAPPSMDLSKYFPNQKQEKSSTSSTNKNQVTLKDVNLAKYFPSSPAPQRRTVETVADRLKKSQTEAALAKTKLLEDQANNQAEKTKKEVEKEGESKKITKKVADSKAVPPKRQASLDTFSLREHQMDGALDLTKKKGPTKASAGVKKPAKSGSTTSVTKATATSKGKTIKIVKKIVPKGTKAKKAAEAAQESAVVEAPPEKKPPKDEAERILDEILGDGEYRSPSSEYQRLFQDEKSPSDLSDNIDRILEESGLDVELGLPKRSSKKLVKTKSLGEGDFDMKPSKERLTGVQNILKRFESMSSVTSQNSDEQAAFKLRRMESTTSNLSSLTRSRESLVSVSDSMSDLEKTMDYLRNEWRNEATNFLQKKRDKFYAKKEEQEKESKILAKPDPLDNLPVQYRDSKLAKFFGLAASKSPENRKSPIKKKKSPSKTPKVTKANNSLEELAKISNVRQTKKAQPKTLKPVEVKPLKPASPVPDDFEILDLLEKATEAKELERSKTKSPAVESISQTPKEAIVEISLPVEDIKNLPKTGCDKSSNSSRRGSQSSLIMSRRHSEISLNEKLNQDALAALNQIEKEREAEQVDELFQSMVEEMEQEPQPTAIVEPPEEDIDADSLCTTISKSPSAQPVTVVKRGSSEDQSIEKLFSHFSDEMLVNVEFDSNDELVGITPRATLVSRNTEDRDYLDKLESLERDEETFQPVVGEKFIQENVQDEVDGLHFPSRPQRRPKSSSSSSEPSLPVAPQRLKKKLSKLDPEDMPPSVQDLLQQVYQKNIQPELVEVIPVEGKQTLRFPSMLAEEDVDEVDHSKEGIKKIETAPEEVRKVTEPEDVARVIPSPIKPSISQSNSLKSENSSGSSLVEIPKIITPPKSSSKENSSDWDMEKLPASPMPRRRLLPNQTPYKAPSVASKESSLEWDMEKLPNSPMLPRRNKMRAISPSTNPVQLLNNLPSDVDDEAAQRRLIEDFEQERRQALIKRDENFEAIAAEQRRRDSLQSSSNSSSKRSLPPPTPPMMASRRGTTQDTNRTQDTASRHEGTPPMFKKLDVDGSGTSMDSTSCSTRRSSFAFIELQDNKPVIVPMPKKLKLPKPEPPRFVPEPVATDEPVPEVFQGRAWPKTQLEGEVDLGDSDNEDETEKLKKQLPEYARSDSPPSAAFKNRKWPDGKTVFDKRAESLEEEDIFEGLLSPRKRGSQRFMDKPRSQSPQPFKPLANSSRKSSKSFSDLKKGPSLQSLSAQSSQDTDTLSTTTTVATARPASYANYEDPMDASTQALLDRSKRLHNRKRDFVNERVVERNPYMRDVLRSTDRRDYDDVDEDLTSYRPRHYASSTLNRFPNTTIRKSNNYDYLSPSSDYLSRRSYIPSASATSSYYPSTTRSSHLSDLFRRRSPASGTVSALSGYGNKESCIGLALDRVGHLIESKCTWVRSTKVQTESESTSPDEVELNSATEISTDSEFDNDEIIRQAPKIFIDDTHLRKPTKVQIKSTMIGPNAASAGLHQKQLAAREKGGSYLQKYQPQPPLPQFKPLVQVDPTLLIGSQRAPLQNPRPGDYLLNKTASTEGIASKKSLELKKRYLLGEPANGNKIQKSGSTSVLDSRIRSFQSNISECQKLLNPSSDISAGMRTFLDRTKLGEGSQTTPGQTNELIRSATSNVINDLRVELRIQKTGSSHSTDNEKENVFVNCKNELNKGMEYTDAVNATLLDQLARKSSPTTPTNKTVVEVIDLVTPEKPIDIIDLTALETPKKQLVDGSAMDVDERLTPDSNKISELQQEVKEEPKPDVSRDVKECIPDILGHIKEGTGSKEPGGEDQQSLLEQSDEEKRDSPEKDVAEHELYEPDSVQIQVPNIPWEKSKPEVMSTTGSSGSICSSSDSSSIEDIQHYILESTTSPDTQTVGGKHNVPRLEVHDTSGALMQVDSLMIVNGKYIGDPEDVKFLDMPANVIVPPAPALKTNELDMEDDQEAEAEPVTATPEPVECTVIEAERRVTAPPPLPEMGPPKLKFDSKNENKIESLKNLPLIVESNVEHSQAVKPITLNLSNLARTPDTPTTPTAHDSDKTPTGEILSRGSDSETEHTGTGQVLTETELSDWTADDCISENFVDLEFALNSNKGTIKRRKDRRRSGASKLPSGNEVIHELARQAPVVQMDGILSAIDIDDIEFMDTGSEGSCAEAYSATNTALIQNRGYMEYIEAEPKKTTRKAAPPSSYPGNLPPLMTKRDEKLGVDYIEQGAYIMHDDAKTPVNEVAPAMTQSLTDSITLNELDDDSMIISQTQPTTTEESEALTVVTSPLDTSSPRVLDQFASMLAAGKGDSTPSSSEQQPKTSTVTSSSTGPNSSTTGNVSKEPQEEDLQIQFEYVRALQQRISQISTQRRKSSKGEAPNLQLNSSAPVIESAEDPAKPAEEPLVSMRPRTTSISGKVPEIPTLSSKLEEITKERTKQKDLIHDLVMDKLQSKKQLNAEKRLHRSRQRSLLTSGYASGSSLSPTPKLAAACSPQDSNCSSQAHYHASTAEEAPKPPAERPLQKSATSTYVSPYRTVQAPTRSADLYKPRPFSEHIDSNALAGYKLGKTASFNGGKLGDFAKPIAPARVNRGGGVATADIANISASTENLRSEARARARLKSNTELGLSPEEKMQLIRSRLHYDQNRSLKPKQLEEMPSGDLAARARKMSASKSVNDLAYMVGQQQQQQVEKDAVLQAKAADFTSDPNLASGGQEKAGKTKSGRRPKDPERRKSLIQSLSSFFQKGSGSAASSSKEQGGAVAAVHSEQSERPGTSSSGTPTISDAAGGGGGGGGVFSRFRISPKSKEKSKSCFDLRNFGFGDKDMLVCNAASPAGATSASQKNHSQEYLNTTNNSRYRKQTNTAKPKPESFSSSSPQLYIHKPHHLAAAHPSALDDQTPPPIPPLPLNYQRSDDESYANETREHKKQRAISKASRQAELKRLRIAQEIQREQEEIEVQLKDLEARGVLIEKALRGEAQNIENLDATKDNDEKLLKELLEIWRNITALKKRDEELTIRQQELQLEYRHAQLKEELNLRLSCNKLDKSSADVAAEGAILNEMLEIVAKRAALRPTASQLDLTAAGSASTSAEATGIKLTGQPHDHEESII

## Mical (from UniProt Q86BA1 1-4723) (enzyme)
  Mical enzymatic activity (conversion of NADPH to NADP+) with F-actin: > 100 fold
